In article PMC6006169, “Conformational switching in the coiled-coil domains of a proteasomal ATPase regulates substrate processing” (Nature Communications, 2018):
Blank lines part the entries; values can stand above or below the molecule they belong to.

Legend:
[1] = target: CC-OB domain fragment of PAN-M87C (subcomplex I) (Methanococcus jannaschii); assay: cross-linking; PAN-M87C after partial trypsin proteolysis and gel filtration (Superose 12); fractions 1 and 3 in 1 mM tetrathionate 1 h at room temperature, desalted, non-reducing SDS-PAGE, silver stain
[2] = target: T1, PAN (proteasome-activating nucleotidase) (Methanocaldococcus jannaschii, UniProt Q58576, L73C/M87C); assay: NADH-coupled ATP regenerating ATPase assay ([…] nm); format: biochemical; conditions: oxidized (tetrathionate): coiled-coil disulfide crosslinked C1 and C3, no saturation with ATP; pH 7.5, 37 °C, 20 mM MgCl2; original residue 73 not given
T1 construct: full-length, pRSETA, E. coli BL21(DE3)-RIL, heat precipitation, anion exchange and size exclusion; no tag mentioned; homohexamer

[3] = target: the molecule itself; assay: cross-linking; disulfide cross-linking of engineered cysteines; 1 mM tetrathionate, 1-2 h, room temperature, 50 mM Tris pH 7.5 + 5% glycerol, no nucleotide, PAN at or below 0.25 mg/ml; desalted on G50, non-reducing SDS-PAGE, Coomassie, densitometry of monomers vs. dimers
purified protein = substrate: Nc1ncnc2c1ncn2[C@@H]1O[C@H](COP(=O)(O)OP(=O)(O)OP(=O)(O)O)[C@@H](O)[C@H]1O; assay: purified protein; format: biochemical, Methanocaldococcus jannaschii; conditions: reduced (uncrosslinked), pH 7.5, 37 °C

T1 sequence (Q58576 whole entry L73C/M87C): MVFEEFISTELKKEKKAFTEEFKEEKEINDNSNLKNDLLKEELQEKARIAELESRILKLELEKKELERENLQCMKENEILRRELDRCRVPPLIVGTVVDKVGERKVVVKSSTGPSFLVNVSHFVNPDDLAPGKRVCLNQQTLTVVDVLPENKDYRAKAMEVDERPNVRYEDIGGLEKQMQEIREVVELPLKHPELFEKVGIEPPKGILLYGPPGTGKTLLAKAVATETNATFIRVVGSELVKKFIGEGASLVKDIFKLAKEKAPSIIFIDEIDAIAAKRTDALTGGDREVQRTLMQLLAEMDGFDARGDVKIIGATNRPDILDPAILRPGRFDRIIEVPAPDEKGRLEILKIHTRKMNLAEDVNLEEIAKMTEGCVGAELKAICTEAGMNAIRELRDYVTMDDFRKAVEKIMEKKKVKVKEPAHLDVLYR

Molecule: CC-OB domain fragment of PAN-M87C (subcomplex I) (domain or fragment)
percent cross-linked dimers [1]: 100%

Km [2]: > 3000 µM
Molecule: Nc1ncnc2c1ncn2[C@@H]1O[C@H](COP(=O)(O)OP(=O)(O)OP(=O)(O)O)[C@@H](O)[C@H]1O [ATP]

B1: PAN 59C (enzyme, Methanococcus jannaschii, UniProt Q58576 1-430, looked up)
chain: MVFEEFISTELKKEKKAFTEEFKEEKEINDNSNLKNDLLKEELQEKARIAELESRILKCELEKKELERENLQLMKENEILRRELDRMRVPPLIVGTVVDKVGERKVVVKSSTGPSFLVNVSHFVNPDDLAPGKRVCLNQQTLTVVDVLPENKDYRAKAMEVDERPNVRYEDIGGLEKQMQEIREVVELPLKHPELFEKVGIEPPKGILLYGPPGTGKTLLAKAVATETNATFIRVVGSELVKKFIGEGASLVKDIFKLAKEKAPSIIFIDEIDAIAAKRTDALTGGDREVQRTLMQLLAEMDGFDARGDVKIIGATNRPDILDPAILRPGRFDRIIEVPAPDEKGRLEILKIHTRKMNLAEDVNLEEIAKMTEGCVGAELKAICTEAGMNAIRELRDYVTMDDFRKAVEKIMEKKKVKVKEPAHLDVLYR
notes: Expressed from pRSETA; no tag named; source: E. coli BL21-DE3-RIL, purified (heat precipitation, anion exchange, size exclusion)
percent cross-linked [3]: 69%
Km (purified protein; 20 mM MgCl2, original residue 59 not given): 436 ± 29 µM

B2: PAN (proteasome-activating nucleotidase) (Methanocaldococcus jannaschii DSM 2661; L59C/L73C/M87C) (protein)
chain: MVFEEFISTELKKEKKAFTEEFKEEKEINDNSNLKNDLLKEELQEKARIAELESRILKCELEKKELERENLQCMKENEILRRELDRCRVPPLIVGTVVDKVGERKVVVKSSTGPSFLVNVSHFVNPDDLAPGKRVCLNQQTLTVVDVLPENKDYRAKAMEVDERPNVRYEDIGGLEKQMQEIREVVELPLKHPELFEKVGIEPPKGILLYGPPGTGKTLLAKAVATETNATFIRVVGSELVKKFIGEGASLVKDIFKLAKEKAPSIIFIDEIDAIAAKRTDALTGGDREVQRTLMQLLAEMDGFDARGDVKIIGATNRPDILDPAILRPGRFDRIIEVPAPDEKGRLEILKIHTRKMNLAEDVNLEEIAKMTEGCVGAELKAICTEAGMNAIRELRDYVTMDDFRKAVEKIMEKKKVKVKEPAHLDVLYR
notes: full-length, pRSETA, E. coli BL21(DE3)-RIL, heat precipitation, anion exchange and size exclusion; no tag mentioned; homohexamer
Km (purified protein; 20 mM MgCl2, original residues 73 and 59 not given): 580 ± 64 µM
